Experimental findings from patent US20200216833A1 are described below.

For the test, the target named is SH2 domain of Abl1 kinase fused to 434 cI repressor (UniProt P16117). As to the kind of experiment: cell-based or functional assay.

The substance “HA4 Y84A monobody (from UniProt P0A800 1-91) (designed binder)” came in with an ON propagation on this AP combo, against the wt HA4 monobody of 105 fold lower.
